{"source": "patent EP4711453A1", "about": "“PHENYLALANINE LYASE MUTANT, AND CONJUGATE THEREOF OR PHARMACEUTICALLY ACCEPTABLE SALT THEREOF” (Peg-Bio Biopharm Co., Ltd. (Chongqing), priority 2023, dated 2024)", "key": {"[1]": {"test": "Specific enzyme activity of phenylalanine lyase (trans-cinnamic acid formation, absorbance at 290 nm)", "format": "biochemical", "experimental": "Phenylalanine lyase specifically catalyzes the conversion of phenylalanine into trans-cinnamic acid with the release of ammonia. […] Enzyme activity is defined as the amount of enzyme required to produce 1 µmol of trans-cinnamic acid per minute in buffer (100 mmol/L Tris-HCl, pH 8.5) at room temperature (25°C) as one unit of enzyme activity.\nThe specific enzyme activity of phenylalanine lyase and its mutants (i.e., PAL, PAL2, PAL3, and PAL4 proteins) prepared in Example 1 was evaluated by taking an appropriate amount of test sample and diluting it to 0.4 mg/ml using assay buffer (100 mmol/L Tris-HCl, pH 8.0). 2.9 ml of substrate solution (100 mmol/L Tris-HCl, 45 mmol/L Phe, pH 8.0) was placed in a cuvette, followed by addition of 0.1 ml of diluted test solution and immediate mixing. The changes in absorbance per minute were recorded at a wavelength of 290 nm, and the specific enzyme activity was calculated according to the formula. Enzyme activity (U/mg) = (AS−AO)VN × 10^6 /εLTV1 [formula]\nWhere AS and AO represent the absorbance of trans-cinnamic acid at the […] of the reaction, respectively; V is the total volume (L) of the reaction system; L is the optical path length of the cuvette (cm); ε is the molar extinction coefficient of trans-cinnamic acid (10238.1 L/(mol·cm)); T is the reaction time (min); N is the dilution factor of the test sample; V1 is the volume of test sample (ml).\nThe enzyme activity retention rate was calculated by comparing the specific enzyme activity of phenylalanine lyase mutants with the specific enzyme activity of the phenylalanine lyase. Table 2: Specific enzyme activity of phenylalanine lyase mutants\nThe specific enzyme activity of the polyethylene glycol conjugates of phenylalanine lyase and its mutants prepared in Step 1 of Example 2 was determined according to the method described in Step 1 of this example. The enzyme activity retention rate was calculated by comparing the specific enzyme activity of each conjugate with its specific enzyme activity prior to PEG modification (e.g., the enzyme activity retention rate of PL5-1 = specific enzyme activity of PL5-1 / specific enzyme activity of PAL protein). Table 3: Specific enzyme activity of PEGylated phenylalanine lyase mutants"}, "[2]": {"tested_on": "anti-PAL protein antibodies", "test": "Anti-PAL protein antibody in rat serum after multiple administrations (bridging ELISA)", "format": "in vivo", "conditions": "SD rats", "experimental": "To evaluate PEGylated conjugates of phenylalanine lyase or its mutants with different average degrees of modification, the inventors divided SD rats into four groups (n=6 per group). The animals were subcutaneously injected with PL54-1 and PL54-5 (average degrees of modification: 10.54 and 13.60, respectively) and PL5-1 and PL5-5 (average degrees of modification: 8.2 and 10.53, respectively) from Table 3 of Example 2 at a dose of 2 mg/kg once a week for four doses. Blood samples were collected on D1 (Day 1), D3 (Day 3), and D7 (Day 7) after the first dose, as well as on D3 and D7 following each subsequent dose. The concentrations of PL54-1, PL54-5, PL5-1, and PL5-5 in rat serum were determined by sandwich ELISA to assess plasma drug concentration maintenance after multiple administrations. Anti-PEG-IgM/IgG antibody titers in rat serum from each group were measured using indirect ELISA (coating with PEG-BSA, adding positive rat anti-PEG Abs/test serum samples, followed by HRP-conjugated anti-rat IgM/IgG detection), while bridging ELISA (coating with PAL protein, adding positive sheep anti-PAL Abs/acidified serum samples, followed by biotin-labeled PAL detection) was also performed. The plasma drug concentration results are shown in FIG. 4, and the antibody detection results after administration were shown in FIG. 4 and FIG. 5."}, "anti-PAL-IgG": {"tested_on": "anti-PAL-IgG", "test": "Immunogenicity of conjugates with different PEG molecular weights in rats: anti-PAL-IgG (ELISA)", "format": "in vivo", "conditions": "for anti-PAL-IgG, x (average OD value of antibody detection by ELISA) / anti-PAL-IgG, Positive rate: 0.75 mg/kg s.c. once weekly", "experimental": "Polyethylene glycol conjugates of phenylalanine lyase or its mutant with different structures and modifier molecular weights, namely PL20, PL24, and PL54, were prepared according to the method described in Example 2. The phenylalanine lyase in PL20 has the amino acid sequence as set forth in SEQ ID NO: 1, and the polyethylene glycol has a molecular weight of 20K. The phenylalanine lyase in PL24 has the amino acid sequence as set forth in SEQ ID NO: 6, and the polyethylene glycol has a molecular weight of 2K. The phenylalanine lyase in PL54 has the amino acid sequence as set forth in SEQ ID NO: 6, and the polyethylene glycol has a molecular weight of 5K.\nTo evaluate the immunogenicity of PL20, PL24, and PL54 in animals, normal rats were selected and divided into 3 groups, with 6 rats per group (3 males and 3 females). Subcutaneous administration was performed at a dose of 0.75 mg/kg with PL54 (average degree of modification 13.6, 1.27 U/mg), PL24 (average degree of modification 13.3, 0.96 U/mg), and PL20 (average degree of modification 7.6, 1.14 U/mg) for the three groups, respectively. Administration was repeated 7 times, once weekly. Blood samples were collected 7 days after each administration. Serum anti-PEG-IgG and anti-PAL4 protein antibodies were detected by ELISA (refer to Example 5 for details). In the table, \"1-7\" indicated 7 days after the first administration, and \"7-7\" indicated 7 days after the seventh administration. x represented the average OD value of antibody detection by ELISA, and the positive rate represented the ratio of the number of antibody-positive animals to the total number of animals in the group. Table 6: Antibody titers in rats after multiple administrations of polyethylene glycol conjugates with different molecular weights"}, "serum phenylalanine": {"tested_on": "serum phenylalanine", "test": "Comparative pharmacodynamics with Pegvaliase: serum phenylalanine after multiple administrations", "format": "in vivo", "conditions": "Pah^enu mice, 3 mg/kg s.c. once weekly; second to fourth administrations", "text": "(§1) To evaluate the differences in pharmacodynamics and immunogenicity between the polyethylene glycol conjugate PL54-5 of directionally saturated modified phenylalanine lyase mutant and Pegvaliase (marketed drug), eight Pah^enu mice were allocated into two groups of four mice each, and administered with either PL54-5 (average degree of modification: 13.60, specific enzyme activity: 1.27 U/mg) from Table 3 of Example 2 or Pegvaliase Injection (manufactured by BioMarin, purchased lot number L161239, specification: 20 mg/mL/vial) at an administration dose of 3.0 mg/kg, once weekly via subcutaneous injection for four consecutive weeks. Blood samples were collected from each group of mice before administration and at 3 days and 7 days after each administration, respectively. Changes in serum phenylalanine concentration were measured (Reference: Judy Peat et al., Determination of Phenylalanine and Tyrosine by High Performance Liquid Chromatography-Tandem Mass Spectrometry) and anti-PEG-IgM/IgG antibody titers of each animal were determined at the end of the study (see Example 5 for details), to assess differences in pharmacodynamics and immunogenicity, as shown in FIG. 11 and FIG. 12."}, "[3]": {"tested_on": "anti-PEG IgG and IgM antibodies", "test": "Comparative immunogenicity with Pegvaliase: anti-PEG IgG and IgM antibodies after multiple administrations", "format": "in vivo", "conditions": "Pah^enu mice, 3 mg/kg s.c. once weekly for four weeks", "text": "as §1"}}, "data": [{"molecule": "PL54-5: polyethylene glycol conjugate of PAL4 (SEQ ID NO: 6) with PEG-SPA-5K, molar ratio 1:16, average degree of modification 13.60 (conjugate, PEG-SPA-5K conjugate, ~13.6 PEG per molecule) MKTLSQAQSKTSSQQFSFTGNSSANVIIGNQKLTINDVARVARNGTLVSLTNNTDILQGIQASCDYINNAVKSGEPIYGVTSGFGGMANVAISREQASELQTNLVWFLKTGAGNKLPLADVRAAMLLRANSHMRGASGIRLELIKRMEIFLNAGVTPYVYEFGSIGASGDLVPLSYITGSLIGLDPSFKVDFNGKEMDAPTALRQLNLSPLTLLPKEGLAMMNGTSVMTGIAANCVYDTKILTAIAMGVHALDIQALNGTNQSFHPFIHNSKPHPGQLWAADQMISLLANSQLVRDELDGKHDYRDHELIQDRYSLRCLPQYLGPIVDGISQIAKQIEIEINSVTDNPLIDVDNQASYHGGNFLGQYVGMGMDHLRYYIGLLAKHLDVQIALLASPEFSNGLPPSLLGNRERKVNMGLKGLQICGNSIMPLLTFYGNSIADRFPTHAEQFNQNINSQGYTSATLARKSVDIFQNYVAIALMFGVQAVDLRTYKKTGHYDARASLSPATERLYSAVRHVVGQKPTSDRPYIWNDNEQGLDEHIAKISADIAAGGVIVQAVQDILPSLH", "values": [{"measurement": "Enzyme activity retention rate", "setting": "[1]; conjugate compared with its protein prior to PEG modification", "value": 83, "unit": "%"}, {"measurement": "Specific enzyme activity", "setting": "[1]; polyethylene glycol conjugates, method as for the proteins", "value": 1.27, "unit": "U/mg"}, {"measurement": "anti-PAL protein antibodies, positive rats", "setting": "[2]; serum dilution 1:10, 7 days after the fourth dose", "value": "1/6"}, {"measurement": "anti-PAL protein antibodies", "setting": "[2]; serum dilution 1:10, after the first dose", "value": "very weak positivity"}, {"measurement": "anti-PAL-IgG, x (average OD value of antibody detection by ELISA)", "setting": "anti-PAL-IgG; 1-7 (7 days after the first administration)", "value": "x=0.107"}, {"measurement": "anti-PAL-IgG, Positive rate", "setting": "anti-PAL-IgG; 1-7, antibody-positive animals / animals in the group", "value": "Positive rate: 2/6"}, {"measurement": "anti-PAL-IgG, x (average OD value of antibody detection by ELISA)", "setting": "anti-PAL-IgG; 7-7 (7 days after the seventh administration)", "value": "x=0.089"}, {"measurement": "anti-PAL-IgG, Positive rate", "setting": "anti-PAL-IgG; 7-7, antibody-positive animals / animals in the group", "value": "Positive rate: 0/6"}, {"measurement": "anti-PAL4 protein antibody", "setting": "anti-PAL-IgG; 7 days after seven doses", "value": "No anti-PAL4 protein antibody was detected"}, {"measurement": "phenylalanine-lowering effect", "setting": "serum phenylalanine", "value": "consistently reduced phenylalanine levels on Day 3"}, {"measurement": "immunogenicity after long-term administration", "setting": "[3]", "value": "significantly lower immunogenicity than pegvaliase"}]}]}
